Paper PMC11462610, “PpBBX32 and PpZAT5 modulate temperature-dependent and tissue-specific anthocyanin accumulation in peach fruit”

Key:
PpZAT5 [1] = target: T1, PpZAT5 (Prunus persica, UniProt A0A251NAP4 1-283); test: EMSA; LightShift Chemiluminescent EMSA kit (Thermo), biotin-labeled probes; buffer, salt, pH and temperature not stated; details: protein: recombinant; tags: N-terminal His-trigger factor (pColdTF fusion); blunt
T1 sequence: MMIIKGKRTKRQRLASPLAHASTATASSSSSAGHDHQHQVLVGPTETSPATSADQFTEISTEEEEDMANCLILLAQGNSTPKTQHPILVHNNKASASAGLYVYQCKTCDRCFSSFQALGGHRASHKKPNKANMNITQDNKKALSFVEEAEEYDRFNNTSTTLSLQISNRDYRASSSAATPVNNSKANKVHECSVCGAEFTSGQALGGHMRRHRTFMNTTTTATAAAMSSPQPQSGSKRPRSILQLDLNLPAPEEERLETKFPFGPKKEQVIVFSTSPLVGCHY

PpZAT5 [2] = target: T1, PpZAT5; test: EMSA; shift weakened by increasing cold probe; LightShift Chemiluminescent EMSA kit (Thermo), biotin-labeled probes; buffer, salt, pH and temperature not stated; details: protein: recombinant; tags: N-terminal His-trigger factor (pColdTF fusion); label: biotin; blunt
PpBBX32 = target: T2, PpBBX32 (Prunus persica, UniProt A0A251PTV0 1-264); test: as above; details: protein: recombinant; tags: N-terminal His-trigger factor (pColdTF fusion); label: biotin; blunt
T2 sequence: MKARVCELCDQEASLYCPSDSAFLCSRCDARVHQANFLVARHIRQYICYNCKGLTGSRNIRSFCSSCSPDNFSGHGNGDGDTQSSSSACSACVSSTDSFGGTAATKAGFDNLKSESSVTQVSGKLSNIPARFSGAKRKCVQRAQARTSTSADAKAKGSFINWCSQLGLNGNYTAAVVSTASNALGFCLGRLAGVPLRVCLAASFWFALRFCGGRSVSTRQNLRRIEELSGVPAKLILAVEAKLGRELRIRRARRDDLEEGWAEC

B1: proPpMYB10.1 ACT core element 7 mutant (dsDNA)
DNA 1: TCTTAGCTAGTTACCCTAGTTATCAAG
DNA 2: CTTGATAACTAGGGTAACTAGCTAAGA
- binding result (PpZAT5 [1]): no binding

B2: proPpMYB10.1 ACT core element 7 (dsDNA)
DNA 1: TCTTAGCTAACTGTTACTGTTATCAAG
DNA 2: CTTGATAACAGTAACAGTTAGCTAAGA
- binding result (PpZAT5 [2]): binds

B3: proPpMYB10.1 G-box1&2 (dsDNA)
DNA 1: CAGCTGTGATACGTGAACCACACGTGCTGACACTA
DNA 2: TAGTGTCAGCACGTGTGGTTCACGTATCACAGCTG
- binding result (PpBBX32): binds
